{
  "source": "patent US20230304023A1",
  "about": "“BILE SALTS B[…] USE THEREOF FOR DIAGNOSTIC AND T[…]” (INSERM (INSTITUT NATIONAL DE LA SANTÉ ET DE LA RECHERCHE …, priority 2020, published 2023)",
  "molecules": {"B1": {"name": "TcpPwt: Wild-type V. cholerae TcpP bile salt sensing domain, loop NYEQ (SEQ ID NO:4/24), fused to E. coli CadC DNA binding domain (SEQ ID NO:48) (protein)", "chain": "MQQPVVRVGEWLVTPSINQISRNGRQLTLEPRLIDLLVFFAQHSGEVLSRDELIDNVWKRSIVTNHVVTQSISELRKSLKDNDEDSPVYIATVPKRGYKLMVPVIWYSEEEGEEIMLSSPPPIPEAVPATDSPSHSLNIQNTATPPEQSPVKSKRVVPYLVFSALYVALLPVIWWSYGQWYQHELAGITHDLRDLARLPGITIQKLSEQKLTFAIDQHQCSVNYEQKTLECTKN", "modifications": "Synthetic bile salts chimeric receptor"}, "B2": {"name": "SV_3-3-18: TcpP bile salt sensing domain variant, loop VFSD (SEQ ID NO:10/30), CadC fusion SEQ ID NO:54; best engineered variant (protein)", "chain": "B1 chain with N223V, Y224F, E225S, Q226D", "modifications": "Synthetic bile salts chimeric receptor"}, "B3": {"name": "SV_3-3-16: TcpP bile salt sensing domain variant, loop DFLT (SEQ ID NO:9/29), CadC fusion SEQ ID NO:53 (protein)", "chain": "B1 chain with N223D, Y224F, E225L, Q226T", "modifications": "Synthetic bile salts chimeric receptor"}},
  "key": {"bile salts [1]": {"tested_on": "bile salts", "assay": "Specificity testing of the CadC-TcpP bactosensor across a panel of twelve bile salts"}, "bile salts [2]": {"tested_on": "bile salts", "type": "cell-based, E. coli", "conditions": "kinetic analysis, data not shown"}, "Taurocholic acid": {"tested_on": "Taurocholic acid", "type": "cell-based, E. coli"}},
  "note": "Residue numbers refer to the chain shown, from its start.",
  "data": [
    {"molecule": "B1", "values": [
      {"measurement": "response to secondary bile salts", "setting": "bile salts [1]", "value": "did not respond"},
      {"measurement": "specificity across bile salts", "setting": "bile salts [1]; primary and secondary types", "value": "highly specific for primary conjugated bile salts"}
    ]},
    {"molecule": "B2", "values": [
      {"measurement": "response speed at low ligand concentration compared to wt TcpP", "setting": "bile salts [2]", "value": "faster response at low ligand concentration"}
    ]},
    {"molecule": "B3", "values": [
      {"measurement": "EC50", "setting": "Taurocholic acid; taurocholic acid (TCA) as ligand, GFP output", "value": 42.1, "unit": "µM"},
      {"measurement": "Max fold change", "setting": "Taurocholic acid; taurocholic acid titration", "value": 75.73}
    ]}
  ]
}
